# Where two headings read alike, the source gives them in different places.
# What was measured:
# [1] = test system: MBP-ENLYFQS-GST fusion protein
# [2] = test system: synthetic substrate peptide […]
# [3] = target: synthetic substrate peptide […]; remark: listed apart in the source
molecule,measurement,setting,value
uTEV3,percent of fusion cleaved after 30 mins at a 1:200 protease to substrate ratio,[1],compared to only 30% cleavage with uTEV3
same,KM,[2],the improved catalytic efficiency in uTEV3 appears to be mainly due to a significant KM decrease
"TEV variant S6 (E79S, A173G, V219S on the TEV-EAV template)",activity on the peptide in vitro,[2],six selected clones showed higher activity on the peptide […] (SEQ ID NO:33) compared to TEV-EAV
"TEV variant S7 (E79G, S219R on the TEV-EAV template)",activity on the peptide in vitro,[2],six selected clones showed higher activity on the peptide […] (SEQ ID NO:33) compared to TEV-EAV
"TEV variant E2 (S3I, P8Q, S31T, A231V on the TEV-EAV template)",activity on the peptide in vitro,[2],six selected clones showed higher activity on the peptide […] (SEQ ID NO:33) compared to TEV-EAV
TEV-S219P,percent of fusion protein digested in 40 minutes at 30° C. at a 1:100 ratio,[1],compared to ˜68% for TEV-EAV and TEV-S219P
"TEV variant S8 (A173D, V219K on the TEV-EAV template)",activity on the peptide in vitro,[2],six selected clones showed higher activity on the peptide […] (SEQ ID NO:33) compared to TEV-EAV
"TEV variant E5 (K6M, S15L on the TEV-EAV template)",activity on the peptide in vitro,[2],six selected clones showed higher activity on the peptide […] (SEQ ID NO:33) compared to TEV-EAV
"TEV variant E1 (Q74L, S200N on the TEV-EAV template)",activity on the peptide in vitro,[2],six selected clones showed higher activity on the peptide […] (SEQ ID NO:33) compared to TEV-EAV
"enhanced TEV ""eTEV"" mutant TEV protease (S3I, P8Q, S31T, E79G, T173A, S219R, A231V) (protein) ILFKGQRDYNPISSTICHLTNESDGHTTTLYGIGFGPFIITNKHLFRRNNGTLLVQSLHGVFKVKNTTTLQQHLIDGRDMIIIRMPKDFPPFPQKLKFREPQREERICLVTTNFQTKSMSSMVSDTSCTFPSSDGIFWKHWIQTKDGQCGSPLVSTRDGFIVGIHSASNFANTNNYFTSVPKNFMELLTNQEAQQWVSGWRLNADSVLWGGHKVFMRKPEEPFQPVKEVTQLMRRRRR",KM,[3],KM of eTEV remained unchanged at 65 µM with that of TEV-EAV
same,fold decreased KM compared to TEV-S219P,[3],2.77-fold decreased KM
same,fold improvement in catalytic efficiency (kcat/KM) compared to TEV-EAV,[3],2-fold improvement in catalytic efficiency (kcat/KM) compared to TEV-EAV
same,fold increase in catalytic efficiency relative to the parent TEV-S219P,[3],~8-fold overall increase in catalytic efficiency relative to the parent TEV-S219P
same,fold increased catalytic turnover rate (kcat) compared to TEV-S219P,[3],2.73-fold increased catalytic turnover rate (kcat)
same,turnover rate (kcat),[3],the turnover rate (kcat) was improved from 0.17 s^-1 to 0.41 s^-1
"TEV-EAV, triple mutant TEV variant (G79E, T173A, S219V) (protein) GESLFKGPRDYNPISSTICHLTNESDGHTTSLYGIGFGPFIITNKHLFRRNNGTLLVQSLHGVFKVKNTTTLQQHLIDERDMIIIRMPKDFPPFPQKLKFREPQREERICLVTNFQTKSMSSMVSDTSCTFPSSDGIFWKHWIQTKDGQCGSPLVSTRDGFIVGIHSASNFANTNNYFTSVPKNFMELLTNQEAQQWVSGWRLNADSVLWGGHKVFMVKPEEPFQPVKEATQLM",KM,[3],KM of eTEV remained unchanged at 65 µM with that of TEV-EAV
same,turnover rate (kcat),[3],the turnover rate (kcat) was improved from 0.17 s^-1 to 0.41 s^-1
